Four molecules from patent US20200339648A1 (University of Washington, published 2020) can be followed below.

Experiment [1] has as its target human IL-2Rβγc on human cells (YT-1 NK cells) (human) (UniProt P14784). The experiment in a line: cell-based or functional assay.
The target of experiment [2] is T1, human IL-2 receptor β subunit (hIL-2Rβ) (human, UniProt P14784 27-240, biotin on the C-terminal biotin acceptor peptide).
T1 construct: Biotinylated and immobilised on streptavidin; also called HsIL-2Rβ; human IL-2Rβ
T1 sequence: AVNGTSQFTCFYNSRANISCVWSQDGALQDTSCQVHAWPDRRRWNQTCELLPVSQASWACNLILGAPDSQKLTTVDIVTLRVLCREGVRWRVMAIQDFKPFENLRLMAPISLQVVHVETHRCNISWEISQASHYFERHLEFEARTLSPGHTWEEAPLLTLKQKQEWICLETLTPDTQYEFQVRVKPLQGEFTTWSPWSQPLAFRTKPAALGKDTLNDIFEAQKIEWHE
The experiment in a line: SPR, equilibrium titration; biotinylated IL-2Rβ on streptavidin chip. The procedure: (§1) Less than 100 response units (RU) of each ligand was immobilized to minimize mass transfer effects. […] Surface regeneration for all interactions was conducted using 15 s exposure to 1 M MgCl2 in 10 mM sodium acetate pH 5.5. SPR experiments were carried out in HBS-P+ buffer (GE Healthcare) supplemented with 0.2% bovine serum albumin (BSA) at 25° C. and all binding studies were performed at a flow rate of […] to prevent analyte rebinding. Data was visualized and processed using the Biacore T100 evaluation software version 2.0 (GE Healthcare). Equilibrium titration curve fitting and equilibrium binding dissociation (KD) value determination was implemented using GraphPad Prism assuming all binding interactions to be first order. Biolayer interferometry: binding data were collected in a Octet RED96 (ForteBio, Menlo Park, Calif.) and processed using the instrument's integrated software using a 1:1 binding model. […] Analyte proteins were diluted from concentrated stocks into binding buffer. After baseline measurement in binding buffer alone, the binding kinetics were monitored by dipping the biosensors in wells containing 100 nM of the designed protein (association) and then dipping the sensors back into baseline wells (dissociation).

Experiment [3] addresses T2, mouse IL-2 receptor β subunit (mIL-2Rβ) (mouse, UniProt P16297 27-240, biotin on the C-terminal biotin acceptor peptide).
T2 construct: extracellular domain; Biotinylated form for SPR; also called MmIL-2Rβ; murine IL-2Rβ
T2 sequence: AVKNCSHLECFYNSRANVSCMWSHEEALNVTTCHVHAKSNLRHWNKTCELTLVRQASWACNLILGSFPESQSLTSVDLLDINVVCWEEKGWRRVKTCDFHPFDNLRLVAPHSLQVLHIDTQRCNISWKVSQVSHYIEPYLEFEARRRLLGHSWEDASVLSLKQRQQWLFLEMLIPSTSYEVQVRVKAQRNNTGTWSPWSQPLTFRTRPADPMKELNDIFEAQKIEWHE
Described as above. As to the method: as §1

For experiment [4], the target named is human IL-2 receptor βγc heterodimer (hIL-2Rβγc), soluble (human) (UniProt P14784). Kind of experiment: SPR, equilibrium titration; IL-2Rγ on streptavidin chip, saturating IL-2Rβ in solution.
The target in experiment [5] is mouse IL-2 receptor βγc heterodimer (mIL-2Rβγc), soluble (mouse) (UniProt P16297). The description is as above.
Experiment [6] concerns the target T3, mouse IL-2Rβγc on murine cells (CTLL-2 T cells, primary CD4+ T cells) (mouse, UniProt P16297 27-539; P34902 23-369).
T3 sequence (looked up) 1: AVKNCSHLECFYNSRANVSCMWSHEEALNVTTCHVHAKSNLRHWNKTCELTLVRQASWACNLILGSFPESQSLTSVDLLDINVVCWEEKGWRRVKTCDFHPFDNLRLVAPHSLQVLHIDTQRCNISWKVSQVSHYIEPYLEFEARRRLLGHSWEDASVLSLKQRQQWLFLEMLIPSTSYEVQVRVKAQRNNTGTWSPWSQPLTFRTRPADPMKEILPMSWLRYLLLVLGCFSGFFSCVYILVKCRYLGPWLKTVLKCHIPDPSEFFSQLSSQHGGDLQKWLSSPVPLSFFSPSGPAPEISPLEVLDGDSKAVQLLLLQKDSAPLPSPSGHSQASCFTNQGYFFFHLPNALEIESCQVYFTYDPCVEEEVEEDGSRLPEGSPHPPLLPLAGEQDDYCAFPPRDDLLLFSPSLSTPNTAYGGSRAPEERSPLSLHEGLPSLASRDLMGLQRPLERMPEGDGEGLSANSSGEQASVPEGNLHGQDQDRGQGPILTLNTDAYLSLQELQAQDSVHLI
T3 sequence (looked up) 2: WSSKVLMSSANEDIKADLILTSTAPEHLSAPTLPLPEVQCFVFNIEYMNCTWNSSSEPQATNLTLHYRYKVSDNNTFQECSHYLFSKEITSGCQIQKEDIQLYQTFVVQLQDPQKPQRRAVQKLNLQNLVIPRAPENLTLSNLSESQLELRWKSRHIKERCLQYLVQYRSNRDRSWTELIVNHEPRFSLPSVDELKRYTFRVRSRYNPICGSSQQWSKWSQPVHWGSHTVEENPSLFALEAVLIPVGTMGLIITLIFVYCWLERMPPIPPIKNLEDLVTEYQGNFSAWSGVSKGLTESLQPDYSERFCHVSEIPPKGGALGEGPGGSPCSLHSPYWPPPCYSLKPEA
The experiment in a line: cell-based or functional assay.

For experiment [7], the target named is T3, mouse IL-2Rβγc on murine cells (CTLL-2 …). The experiment in a line: cell-based or functional assay. This is another data set of the same source.
Experiment [8] addresses T4, human IL-2 receptor α subunit (hIL-2Rα) (human, UniProt P01589 22-238, biotin on the C-terminal biotin acceptor peptide).
T4 construct: range 1-217; Biotinylated and immobilised on streptavidin; also called human IL-2Rα; CD25
T4 sequence: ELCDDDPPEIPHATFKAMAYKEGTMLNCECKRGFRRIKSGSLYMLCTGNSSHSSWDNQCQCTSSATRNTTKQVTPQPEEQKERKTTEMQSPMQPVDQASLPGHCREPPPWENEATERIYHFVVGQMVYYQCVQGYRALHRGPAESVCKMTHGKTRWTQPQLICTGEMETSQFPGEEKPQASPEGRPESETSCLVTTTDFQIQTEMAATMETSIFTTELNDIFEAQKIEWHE
The experiment in a line: SPR, biotinylated receptor on streptavidin chip. The procedure: as §1

For experiment [9], the target named is T5, mouse IL-2 receptor α subunit (mIL-2Rα) (mouse, UniProt P01590 22-236, biotin on the C-terminal biotin acceptor peptide).
T5 construct: extracellular domain; Biotinylated and immobilised on streptavidin; also called murine IL-2Rα
T5 sequence: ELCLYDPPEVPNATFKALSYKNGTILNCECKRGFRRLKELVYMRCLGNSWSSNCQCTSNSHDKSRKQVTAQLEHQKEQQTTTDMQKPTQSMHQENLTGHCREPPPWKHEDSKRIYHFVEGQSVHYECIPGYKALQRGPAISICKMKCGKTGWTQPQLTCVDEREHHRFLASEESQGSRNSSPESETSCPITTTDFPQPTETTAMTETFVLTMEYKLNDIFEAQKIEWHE
Kind of experiment: SPR, biotinylated receptor on streptavidin chip. The procedure: as §1

Experiment [10] deals with T6, mouse IL-2 receptor βγc heterodimer (mIL-2Rβγc), soluble (mouse, UniProt P16297 27-240; P34902 23-263, biotin on the C-terminal biotin acceptor peptide).
T6 construct: extracellular domain; also called MmIL-2Rβγc; mIL-2Rβνc
T6 sequence 1: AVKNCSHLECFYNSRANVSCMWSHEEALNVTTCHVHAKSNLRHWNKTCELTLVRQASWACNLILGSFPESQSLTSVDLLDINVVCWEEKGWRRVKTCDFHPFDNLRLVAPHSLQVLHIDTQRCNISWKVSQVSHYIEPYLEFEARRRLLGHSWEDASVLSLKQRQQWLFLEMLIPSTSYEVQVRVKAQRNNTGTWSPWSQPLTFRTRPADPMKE
T6 sequence 2: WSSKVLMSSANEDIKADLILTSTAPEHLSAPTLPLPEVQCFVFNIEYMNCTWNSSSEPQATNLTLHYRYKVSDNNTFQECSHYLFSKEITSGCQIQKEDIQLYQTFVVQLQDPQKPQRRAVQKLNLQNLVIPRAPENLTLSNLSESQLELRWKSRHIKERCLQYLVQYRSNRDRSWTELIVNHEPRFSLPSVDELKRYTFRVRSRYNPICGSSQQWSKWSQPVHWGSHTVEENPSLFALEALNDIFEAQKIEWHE
The experiment in a line: SPR, equilibrium titration; IL-2Rγ on streptavidin chip, saturating IL-2Rβ in solution. As to the method: as §1

The target of experiment [11] is T6, mouse IL-2 receptor βγc heterodimer …. Kind of experiment: biolayer interferometry; biotin-mIL2Gamma on streptavidin biosensor, MSA-Neo2 titrated from 729 to 1 nM with saturating mIL2Beta.
Experiment [12] deals with T7, fluorescently labeled chimeric hIL-2Rβγc (human, UniProt P14784 27-240; P31785 23-254).
T7 construct: How beta and gamma are joined and labeled is not described; also called fluorescently-tagged beta-gamma chimeric IL-2 receptor; chimeric ILRβγc
T7 sequence (looked up) 1: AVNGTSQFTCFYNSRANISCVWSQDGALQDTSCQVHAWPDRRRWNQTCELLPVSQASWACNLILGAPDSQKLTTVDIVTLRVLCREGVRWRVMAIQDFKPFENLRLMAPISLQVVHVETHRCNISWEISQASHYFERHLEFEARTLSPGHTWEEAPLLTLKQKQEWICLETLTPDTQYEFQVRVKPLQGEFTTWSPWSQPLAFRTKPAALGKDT
T7 sequence (looked up) 2: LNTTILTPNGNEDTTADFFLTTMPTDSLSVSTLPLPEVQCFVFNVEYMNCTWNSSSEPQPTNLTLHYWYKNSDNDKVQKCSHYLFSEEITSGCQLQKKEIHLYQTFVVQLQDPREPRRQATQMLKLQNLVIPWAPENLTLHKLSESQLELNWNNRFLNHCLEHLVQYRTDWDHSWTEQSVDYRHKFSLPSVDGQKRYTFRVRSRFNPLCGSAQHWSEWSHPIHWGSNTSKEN
Kind of experiment: yeast display, flow cytometry.

In experiment [1], Super-2/Superkine (PDB: 3QAZ) (ligand) returned an EC50 (CD25-) pSTAT5p, human NK (YT, CD25-) cells of 70 pM. Moreover, the equilibrium dissociation constant (Kd) in [2] amounted to 2 nM; in experiment [3], 214 nM; in [4], 301 nM; in experiment [5], 312 nM.

B1: Neoleukin-2/15 (designed binder)
chain: PKKKIQLHAEHALYDALMILNIVKTNSPPAEEKLEDYAFNFELILEEIARLFESGDQKDEAEKAKRMKEWMKRIKTTASEDEQEEMANAIITILQSWIFS
notes: 100 residues; also called Neo-2/15; Neolukin-2/15
As for B1, the “EC50 of pSTAT5 signaling, murine CD4+ primary cells ex vivo, CD25+” value in [6] was roughly 24 pM. Further, the “EC50 of pSTAT5 signaling, murine CD4+ primary cells ex vivo, CD25-” value in experiment [6] was roughly 129 pM. In addition, in experiment [7], the “EC50 (CD25+) pSTAT5, murine T (CTLL-2, CD25+) cells” value worked out at 70 pM. Besides, the binding result in experiment [8] and in experiment [9] was “no binding” each time. Besides, the Kd was found to be 16.1 nM in [3] and 38.4 nM in experiment [10].

B2: Mouse Serum Albumin (MSA) fusion to Neoleukin-2/15 (other)
chain: GSDGGSHHHHHHGSGSENLYFQGSGEAHKSEIAHRYNDLGEQHFKGLVLIAFSQYLQKCSYDEHAKLVQEVTDFAKTCVADESAANCDKSLHTLFGDKLCAIPNLRENYGELADCCTKQEPERNECFLQHKDDNPSLPPFERPEAEAMCTSFKENPTTFMGHYLHEVARRHPYFYAPELLYYAEQYNEILTQCCAEADKESCLTPKLDGVKEKALVSSVRQRMKCSSMQKFGERAFKAWAVARLSQTFPNADFAEITKLATDLTKVNKECCHGDLLECADDRAELAKYMCENQATISSKLQTCCDKPLLKKAHCLSEVEHDTMPADLPAIAADFVEDQEVCKNYAEAKDVFLGTFLYEYSRRHPDYSVSLLLRLAKKYEATLEKCCAEANPPACYGTVLAEFQPLVEEPKNLVKTNCDLYEKLGEYGFQNAILVRYTQKAPQVSTPTLVEAARNLGRVGTKCCTLPEDQRLPCVEDYLSAILNRVCLLHEKTPVSEHVTKCCSGSLVERRPCFSALTVDETYVPKEFKAETFTFHSDICTLPEKEKQIKKQTALAELVKHKPKATAEQLKTVMDDFAQFLDTCCKAADKDTCFSTEGPNLVTRCKDALAGGGSGGSGGGSGGSGSGPKKKIQLHAEHALYDALMILNIVKTNSPPAEEKLEDYAFNFELILEEIARLFESGDQKDEAEKAKRMKEWMKRIKTTASEDEQEEMANAIITILQSWIFS
notes: also called MSA-Neo2
For the molecule B2, in experiment [11], the affinity, expressed as Kd, was 33.5 nM.

B3: G1_neo2_35 (designed binder)
chain: STKKWQLQAEHALLDWQMALNKSPEPNENLNRAITAAQSWISTGKIDCDKAEDIRRNSDQARREAEKRGIDVRDLISNAQVILLEAC
Consider B3, for which the binding result in [12] is “no binding (tested: 2 nM)”.
